Key:
Settings in all cases: tags: C-terminal His6
[1] = biological target: T1, N123 (DNA-binding domain of Sleeping Beauty transposase) (synthetic (reconstructed salmonid)); assay: EMSA; still binds
T1 chain: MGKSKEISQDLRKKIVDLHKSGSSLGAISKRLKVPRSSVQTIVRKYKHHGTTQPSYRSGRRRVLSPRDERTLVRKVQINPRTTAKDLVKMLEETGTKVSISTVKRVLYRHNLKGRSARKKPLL
Text: (§1) DNA fragments with one to three DRs were obtained by digestion of the appropriate transposon with HindIII and SacI. To determine the core sequence for SB binding, DNA fragments with mutations in the outer or inner DR were made by PCR followed by enzyme digestion. DNA fragments were end-labeled with [α³²P]-dCTP. Nucleoprotein complexes were formed in a buffer as described by Ivics et al., Cell, 1997;91:501-510. Reactions contained 100 picogram (pg) DNA probes, 1 microgram (μg) poly[dI:dC], and 1 microliter (μl) N123 in a total volume of 20 μl. After a 60 minutes incubation at 30° C., […] of loading dye containing 50% glycerol and bromophenol blue were added and the samples were loaded onto 4%-6% polyacrylamide gels, which were run for 2-3 hours at 120 volts. 4% gels were used for EMSA assays with triple-DR probes while 6% gels were used with double-DR probes. Competitor concentrations were as described in Ivics et al., Cell, 1997;91:501-510. Dried gels were exposed to the phosphor for 6-9 hours and imaged on a Storm 840 Imager (Molecular Dynamics).

[2] = biological target: T1, N123 (DNA-binding domain of Sleeping …); assay: competition; binds more tightly than Lo
Text: as §1
(§2) The initial step of SB transposition involves the specific binding of transposase to both ITRs of SB transposon. Two DRs in each ITR are required because deletion of one or the both severely reduces transposition (Izsvák et al., J. Mol. Biol., 2000;302:93-102). […]

[3] = biological target: T1, N123 (DNA-binding domain of Sleeping …); assay: EMSA; binding not affected
Text: as §1

[4] = biological target: T1, N123 (DNA-binding domain of Sleeping …); assay: EMSA; binding abolished
Text: as §1

[5] = biological target: T1, N123 (DNA-binding domain of Sleeping …); assay: competition; weaker competitor than Li
Text: as §1, §2

B1: Li/Lo(H) (dsDNA)
DNA 1: TCCAGTGGGTCAGAAGTTTACATACACTTAAG
DNA 2: CTTAAGTGTATGTAAACTTCTGACCCACTGGA
modifications: [none]
binding result [1]: binds

B2: Li (dsDNA)
DNA 1: TCCAGTGGGTCAGAAGTTTACATACACTAAGT
DNA 2: ACTTAGTGTATGTAAACTTCTGACCCACTGGA
binding result [2]: binds

B3: Lo(S1,3) (dsDNA)
DNA 1: TAAAATTGAAGTCGGAAGTTTACATACACTTAAG
DNA 2: CTTAAGTGTATGTAAACTTCCGACTTCAATTTTA
binding result [3]: binds

B4: Lo(S10-12) (dsDNA)
DNA 1: TACAGTTGAAGAACGAAGTTTACATACACTTAAG
DNA 2: CTTAAGTGTATGTAAACTTCGTTCTTCAACTGTA
binding result [4]: no binding

B5: Lo (dsDNA)
DNA 1: TACAGTTGAAGTCGGAAGTTTACATACACTTAAG
DNA 2: CTTAAGTGTATGTAAACTTCCGACTTCAACTGTA
binding result [5]: binds

B6: Lo(S3) (dsDNA)
DNA 1: TACAATTGAAGTCGGAAGTTTACATACACTTAAG
DNA 2: CTTAAGTGTATGTAAACTTCCGACTTCAATTGTA
binding result [3]: binds

B7: Lo(delta8-11) (dsDNA)
DNA 1: TACAGTTGAGGAAGTTTACATACACTTAAG
DNA 2: CTTAAGTGTATGTAAACTTCCTCAACTGTA
binding result [4]: no binding

B8: Lo(S7-9) (dsDNA)
DNA 1: TACAGTTGCCCTCGGAAGTTTACATACACTTAAG
DNA 2: CTTAAGTGTATGTAAACTTCCGAGGGCAACTGTA
binding result [3]: binds

B9: Lo(S27-29) (dsDNA)
DNA 1: TACAGTTGAAGTCGGAAGTTTACATACATGGAAG
DNA 2: CTTCCATGTATGTAAACTTCCGACTTCAACTGTA
binding result [4]: no binding

B10: Lo(S28-30) (dsDNA)
DNA 1: TACAGTTGAAGTCGGAAGTTTACATACACGGGAG
DNA 2: CTCCCGTGTATGTAAACTTCCGACTTCAACTGTA
binding result [3]: binds

B11: Lo(S4-6) (dsDNA)
DNA 1: TACAGCCCAAGTCGGAAGTTTACATACACTTAAG
DNA 2: CTTAAGTGTATGTAAACTTCCGACTTGGGCTGTA
binding result [3]: binds
